The text below walks through data of patent US20030170252A1, “Antibody compositions specific for p33QIK and p63Krs1 polypeptides and uses thereof” (priority 2000, published 2003).

In one data set the test system is p33^QIK. In words: Phosphatase treatment of immunoprecipitated p33^QIK, in-gel kinase readout. The data set is classed as biochemical, mouse. The note with it: immune complexes from quiescent or osmotic-stressed quiescent cells; 0.1 unit PP1, 30° C., 30 min. As to the method: NIH3T3 cultures were synchronized in quiescent state by serum starvation for 48 hr (G0), followed by treatment with 300 mM NaCl (G0/NaCl) for 2 hr. p33^QIK in 10 μg of cytosolic lysates (S20) were immunoprecipitated by Ab-KQ (IP), followed by incubation of the immune complexes with 0.1 unit of PP1 (Ps) (lanes 2, 3, 5 and 6) in phosphatase buffer (50 mM Tris-HCl, pH 7.0, 0.1 mM EDTA, 5 mM dithiothreitol, 0.01% Brij 35, 2 mM MnCl2) in the presence of 10 mM Na3VO4 and 50 mM NaF (Ps+I)(lanes 3 and 6) at 30° C. for 30 min. The kinase activity of p33^QIK in the immune complexes was determined by the in-gel kinase assay using MBP as a substrate. Bar indicates p33^QIK.
(§1) MBP (BRL/GIBCO, Grand Island, N.Y.) was used as a substrate in the assay and the in-gel kinase assay was performed as previously described (Wang et al., 1992). Briefly, 10% SDS-polyacrylamide gel (SDS-PAG) was copolymerized with 0.4 mg/ml MBP. Cellular proteins were resolved in the MBP-immobilized SDS-PAG, followed by rinsing the gel with 20% isopropanol in buffer B (100 mM Tris, pH 8, 5 mM β-mercaptoethanol). The gel was denatured in buffer B supplemented with 6 M guanidine-HCl and renatured with buffer B supplemented with 0.04% Tween 40 (Kameshita and Fujisawa, 1989). […] Protein kinases which phosphorylated MBP in the gel were detected by autoradiography of the [γ^32P]-labeled MBP. […]

For data set [1], the system named is p63^Krsl, p35, and p33^QIK. In words: Caspase-3 treatment of Ab-KQ immune complexes, in-gel kinase readout. The data set is classed as biochemical, mouse. The note with it: 0.2 μg Caspase-3, 37° C., 30 min. The method, then: Both p63^Krsl and p33^QIK in 10 μg of cytosolic lysates (S20) were immunoprecipitated by Ab-KQ (lanes 2 to 4 and 6 to 8), followed by reatment with 0.2 μg Caspase-3 (C)(lanes 3, 4, 7 and 8) in the presence of 5 μM caspase inhibitor Z-D-CH2-DCB (C+I)(lanes 4 and 8) at 37° C. for 30 min. The kinase activities of p63^Krsl, p35, and p33^QIK in 5 μg of S20 (lanes 1 and 5) and in the immune complexes were determined by the in-gel kinase assay using MBP as a substrate. Bars indicate p63^Krsl p35, and p33^QIK.
as §1, with “1989). Kinase reaction was carried out by incubating the gel with kinase buffer (20 Mm Tris, pH 7.2, 10 mM MgCl2, 15 mM β-glycerolphosphate) supplemented with 50 μM γATP and 50 μCi of [γ-^32P]ATP at 22° C. for 30 min.” for “1989).”

B1: Lambda phosphatase: Lambda protein phosphatase purchased from NE BioLabs (protein)
chain: MRYYEKIDGSKYRNIWVVGDLHGCYTNLMNKLDTIGFDNKKDLLISVGDLVDRGAENVECLELITFPWFRAVRGNHEQMMIDGLSERGNVNHWLLNGGGWFFNLDYDKEILAKALAHKADELPLIIELVSKDKKYVICHADYPFDEYEFGKPVDHQQVIWNRERISNSQNGIVKEIKGADTFIFGHTPAVKPLKFANQMYIDTGAVFCGNLTLIQVQGEGA
On to B1, for which the “kinase activity of activated p33^QIK after phosphatase treatment” value with p33^QIK is “A similar result was obtained”.

B2: caspase-3: Recombinant human Caspase-3 purchased from Alexis Biochemicals (protein)
chain: SGISLDNSYKMDYPEMGLCIIINNKNFHKSTGMTSRSGTDVDAANLRETFRNLKYEVRNKNDLTREEIVELMRDVSKEDHSKRSSFVCVLLSHGEEGIIFGTNGPVDLKKITNFFRGDRCRSLTGKPKLFIIQACRGTELDCGIETDSGVDDDMACHKIPVEADFLYAYSTAPGYYSWRNSKDGSWFIQSLCAMLKQYADKLEFMHILTRVNRKVATEFESFSFDATFHAKKQIPCIVSMLTKELYFYH
As to B2, the “kinase activities of p63^Krsl, p35 and p33^QIK in immune complexes” value in data set [1] (immune complexes from STSP-treated cells) was “both the kinase activities of p63^Krsl and p35 decreased in correlation with an increased p33^QIK activity”. For the same molecule, in data set [1] (p33^QIK isolated from osmotic-stressed quiescent or growing cultures), the “kinase activity of p33^QIK in immune complexes” value was “no change was detected in the kinase activity of p33^QIK”.
